The values below come from patent US20250320305A1 (Hoffmann-La Roche, published 2025).

For test [1], the target named is T1, biotinylated recombinant human FAP (human, UniProt Q12884 26-760, biotinylated).
T1 construct: also called biotinylated human FAP
The test can be described thus: SPR (Biacore), biotinylated recombinant human FAP. On the technique in general: In SPR one partner is held on a chip, and binding of the other changes the refractive index at the surface.

Test [2] addresses T1, biotinylated recombinant human FAP. Description: SPR (Biacore), biotinylated huFAP on CAPture chip, Fab analyte.
Description: As running and dilution buffer, HBS-P+ (10 mM HEPES, 150 mM NaCl pH 7.4, 0.05% Surfactant P20) was used. A dilution series of anti-huFAP Fabs (3.7-300 nM, 1:3 dilution) was successively injected for 120 s each, dissociation was monitored for 1800 s at a flow rate of 30 μl/min (single cycle kinetics). The surface was regenerated by injecting 6 M guanidine-HCl, 0.25 M NaOH for 120 s. Bulk refractive index differences were corrected by subtracting blank injections and by subtracting the response obtained from the control flow cell without captured human FAP. Curve fitting was performed using the 1:1 Langmuir binding model within the Biacore evaluation software.
In test [3] the target is biotinylated recombinant cynomolgus FAP (cynomolgus). Description: SPR (Biacore), biotinylated recombinant cynomolgus FAP.
Test [4] concerns the target T2, cynomolgus FAP expressed on cells (cynomolgus).
T2 construct: whole, on cells
Description: flow cytometry, cells expressing cynomolgus FAP. Background: Flow cytometry measures light scatter and fluorescence of single cells or particles in a stream.

Test [5] concerns the target T3, human Fibroblast Activation Protein (FAP) expressed on cells (human, UniProt Q12884 1-760).
T3 construct: Cell-surface human FAP on transfected HEK or NIH/3T3 cells; also called huFAP; human FAP-transfected HEK cells
Description: flow cytometry, huFAP-transfected HEK cells.
Description: (§1) The binding of anti-FAP antibodies with a human IgG1 P329G LALA Fc to human FAP was determined by flow cytometry using human FAP-transfected HEK cells. Briefly, the target cells were harvested with Cell Dissociation buffer, washed with FACS Buffer (PBS+2% FCS+5 mM EDTA+0.25% sodium acide) and seeded into 96-U bottom plates (1×10^5 cells/well). Unlabeled primary antibodies were added to the cells (final concentrations 10 μg/ml to 0.64 ng/ml; 1:5 dilutions) and incubated for 30 min at 4° C. After washing, cells were incubated with a PE-conjugated AffiPure F(ab)₂ Fragment Goat anti-human IgG, Fc□ specific (Jackson Immunoresearch) for 30 min at 4° C. in the dark. Afterwards, cells were washed, fixed and measured using a BD FACS LSR Fortessa™.

In test [6] the target is T3, human Fibroblast Activation Protein …. Description: flow cytometry, human FAP-transfected HEK cells.
Description: as §1
For test [7], the target named is T4, human DPP-IV expressed on transfected HEK cells (human, UniProt P27487 1-766).
T4 construct: whole, on cells; also called dipeptidyl peptidase IV
T4 sequence (P27487 whole entry): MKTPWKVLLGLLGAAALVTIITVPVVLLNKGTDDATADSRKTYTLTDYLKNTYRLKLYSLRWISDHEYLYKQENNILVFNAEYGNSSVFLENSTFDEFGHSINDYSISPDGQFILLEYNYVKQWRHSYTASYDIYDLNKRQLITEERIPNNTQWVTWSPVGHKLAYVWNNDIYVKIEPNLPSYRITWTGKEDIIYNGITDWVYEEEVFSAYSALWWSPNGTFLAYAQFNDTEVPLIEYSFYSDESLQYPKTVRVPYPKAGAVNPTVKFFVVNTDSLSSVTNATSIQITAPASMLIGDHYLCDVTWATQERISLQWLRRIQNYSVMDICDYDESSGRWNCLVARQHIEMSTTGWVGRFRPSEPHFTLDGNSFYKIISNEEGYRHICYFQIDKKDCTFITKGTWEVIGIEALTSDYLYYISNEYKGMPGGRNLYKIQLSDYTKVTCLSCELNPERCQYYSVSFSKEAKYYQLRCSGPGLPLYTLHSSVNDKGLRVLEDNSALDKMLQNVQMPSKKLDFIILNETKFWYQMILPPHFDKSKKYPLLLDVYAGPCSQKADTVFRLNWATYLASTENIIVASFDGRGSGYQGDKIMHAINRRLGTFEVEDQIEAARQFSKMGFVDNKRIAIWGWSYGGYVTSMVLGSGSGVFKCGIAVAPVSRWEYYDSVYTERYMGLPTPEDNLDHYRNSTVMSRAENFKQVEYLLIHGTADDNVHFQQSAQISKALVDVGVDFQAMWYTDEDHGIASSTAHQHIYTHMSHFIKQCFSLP
Description: flow cytometry, human DPPIV-transfected HEK cells.
Description: Binding to human FAP and human DPP-IV was determined by flow cytometry using human FAP or human DPPIV-transfected HEK cells. Briefly, the target cells were harvested with Cell Dissociation buffer, washed with FACS Buffer (PBS+2% FCS+5 mM EDTA+0.25% sodium acide) and seeded into 96-U bottom plates (1×10⁵ cells/well). Unlabeled primary antibodies were added to the cells (final concentration 10 μg/ml) and incubated for 30 min at 4° C. After washing, cells were incubated with a goat anti-mouse IgG-PE F(ab′)₂ (Serotec) for 30 min at 4° C. in the dark. Afterwards, cells were washed, fixed and measured using a BD FACS Canto™ II.

Test [8] addresses T5, His-tagged human FAP ectodomain (human, UniProt Q12884 27-760).
T5 construct: also called hu FAP ectodomain+poly-lys-tag+his6-tag; His-tagged FAP antigen
The test can be described thus: SPR, His-tagged human FAP ectodomain as ligand.

The target in test [9] is T6, human CD40 expressed on cells (human, UniProt P25942 21-277). The test can be described thus: cell-based or functional assay.
For test [10], the target named is T3, human Fibroblast Activation Protein …. The test can be described thus: flow cytometry, NIH/3T3-huFAP cells.
Description: (§2) Plates were centrifuged 5 minutes at 1700 rpm and supernatants were flicked off. […] All samples were resuspended in 50 μL/well of 4° C. cold FACS buffer containing the bispecific antigen binding molecules (primary antibody) or the isotype control antibody DP47 at the indicated range of concentrations (in duplicates) and incubated for 120 minutes at 4° C. Afterwards the cells were washed three times with 200 μL 4° C. cold FACS buffer. […] Data analysis was performed using the FlowJo version 10 software (FlowJo LLC).
In test [11] the target is T6, human CD40 expressed on cells. Description: flow cytometry, primary human B cells.
Description: as §2

Broadly, the Kd is the free concentration of one partner at which half of the binding sites on the other are occupied at equilibrium, for simple one-to-one binding. For orientation: koff means the first-order rate constant of dissociation. In general, kon refers to the second-order rate constant of association. The term EC50 denotes the concentration needed to bring the measured effect to its halfway point.

B1: P1AD9438_Fab (clone 212 Fab) (Fab, V domains shown)
VH: EVLLQQSGPELVKPGASVKIACKASGYTLTDYNMDWVRQSHGKSLEWIGDIYPNTGGTIYNQKFKGKATLTIDKSSSTAYMDLRSLTSEDTAVYYCTRFRGIHYAMDYWGQGTSVTVSS
VL: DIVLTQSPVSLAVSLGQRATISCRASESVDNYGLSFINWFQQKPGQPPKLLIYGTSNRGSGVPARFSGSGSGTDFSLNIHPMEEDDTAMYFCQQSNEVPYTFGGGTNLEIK
notes: Fab
Turning to B1, the Kd in test [1] was determined as 0.12 nM. In addition, in test [2], the Kd was below 0.01 nM, the koff was below 1e-06 s⁻¹ and the kon was 1.06e+06 M⁻¹ s⁻¹.

B2: P1AD9438, anti-FAP clone 212 as huIgG1 P329G LALA (antibody, V domains shown)
VH: EVLLQQSGPELVKPGASVKIACKASGYTLTDYNMDWVRQSHGKSLEWIGDIYPNTGGTIYNQKFKGKATLTIDKSSSTAYMDLRSLTSEDTAVYYCTRFRGIHYAMDYWGQGTSVTVSS
VL: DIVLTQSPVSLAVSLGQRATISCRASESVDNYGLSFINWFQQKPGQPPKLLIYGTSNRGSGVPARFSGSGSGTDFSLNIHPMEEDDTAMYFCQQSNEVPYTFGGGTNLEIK
For the molecule B2, the Kd in [3] is 0.14 nM. Moreover, the EC50 in test [4] amounted to 0.3 mg/L; in test [5], 0.118 mg/L; in test [6] it was 0.12 mg/L.

B3: murine anti-human FAP antibody clone 212 (hybridoma-derived) (antibody, IgG1, V domains shown)
VH: EVLLQQSGPELVKPGASVKIACKASGYTLTDYNMDWVRQSHGKSLEWIGDIYPNTGGTIYNQKFKGKATLTIDKSSSTAYMDLRSLTSEDTAVYYCTRFRGIHYAMDYWGQGTSVTVSS
VL: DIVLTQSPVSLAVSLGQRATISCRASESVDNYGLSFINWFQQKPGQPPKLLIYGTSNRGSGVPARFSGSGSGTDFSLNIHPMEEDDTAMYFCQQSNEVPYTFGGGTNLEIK
notes: mu IgG1
Consider B3, for which the binding result in [7] is “no binding (tested: 10 µg/ml)”.

B4: anti-FAP antibody 4B9 (antibody, V domains shown)
VH: EVQLLESGGGLVQPGGSLRLSCAASGFTFSSYAMSWVRQAPGKGLEWVSAIIGSGASTYYADSVKGRFTISRDNSKNTLYLQMNSLRAEDTAVYYCAKGWFGGFNYWGQGTLVTVSS
VL: EIVLTQSPGTLSLSPGERATLSCRASQSVTSSYLAWYQQKPGQAPRLLINVGSRRATGIPDRFSGSGSGTDFTLTISRLEPEDFAVYYCQQGIMLPPTFGQGTKVEIK
On to B4, for which the response in test [5] was half-maximal at 0.089 mg/L (EC50).

B5: P1AE2423, CD40 (P1AE0817) x FAP (P1AE1689) (2+1) C-terminal crossfab fusion (bispecific antibody, human IgG1, kappa, L234A L235A)
light 1: QVQLVQSGAEVKKPGASVKVSCKASGYTLTDYNMDWVRQAPGQGLEWIGDIYPNTGGTIYNQKFKGRVTMTIDTSTSTVYMELSSLRSEDTAVYYCTRFRGIHYAMDYWGQGTTVTVSSASVAAPSVFIFPPSDEQLKSGTASVVCLLNNFYPREAKVQWKVDNALQSGNSQESVTEQDSKDSTYSLSSTLTLSKADYEKHKVYACEVTHQGLSSPVTKSFNRGEC
light 2: DIVMTQTPLSLSVTPGQPASISCRSSQSLVHSNGNTFLHWYLQKPGQSPQLLIYTVSNRFSGVPDRFSGSGSGTDFTLKISRVEAEDVGVYFCSQTTHVPWTFGGGTKVEIKRTVAAPSVFIFPPSDRKLKSGTASVVCLLNNFYPREAKVQWKVDNALQSGNSQESVTEQDSKDSTYSLSSTLTLSKADYEKHKVYACEVTHQGLSSPVTKSFNRGEC
heavy 1: not shown
heavy 2: QVQLVQSGAEVKKPGASVKVSCKASGYSFTGYYIHWVRQAPGQSLEWMGRVIPNAGGTSYNQKFKGRVTLTVDKSISTAYMELSRLRSDDTAVYYCAREGIYWWGQGTTVTVSSASTKGPSVFPLAPSSKSTSGGTAALGCLVEDYFPEPVTVSWNSGALTSGVHTFPAVLQSSGLYSLSSVVTVPSSSLGTQTYICNVNHKPSNTKVDEKVEPKSCDKTHTCPPCPAPEAAGGPSVFLFPPKPKDTLMISRTPEVTCVVVDVSHEDPEVKFNWYVDGVEVHNAKTKPREEQYNSTYRVVSVLTVLHQDWLNGKEYKCKVSNKALGAPIEKTISKAKGQPREPQVCTLPPSRDELTKNQVSLSCAVKGFYPSDIAVEWESNGQPENNYKTTPPVLDSDGSFFLVSKLTVDKSRWQQGNVFSCSVMHEALHNHYTQKSLSLSPG
notes: bivalent for CD40, monovalent for FAP; also called VL-CH1 fused to Fc
Regarding B5, in [8], the Kd stood at 0.094 nM, the off-rate constant (koff) was 3.2e-05 s⁻¹ and the kon was 340000 M⁻¹ s⁻¹. Also, the “EC50, two cell line bridging assay (SEAP of HEK-Blue CD40L reporter cells with FAP-expressing WM-266-4 cells)” value in [9] was determined as 0.0032 nM. This molecule also showed an EC50 in test [10] of 5.19 nM. This molecule also yielded an EC50 in test [11] of 0.095 nM.

B6: P1AE2302, CD40 (P1AE0817) x FAP (28H1) (2+1) C-terminal crossfab fusion (bispecific antibody, human IgG1, kappa, L234A L235A)
light 1: EVQLLESGGGLVQPGGSLRLSCAASGFTFSSHAMSWVRQAPGKGLEWVSAIWASGEQYYADSVKGRFTISRDNSKNTLYLQMNSLRAEDTAVYYCAKGWLGNFDYWGQGTLVTVSSASVAAPSVFIFPPSDEQLKSGTASVVCLLNNFYPREAKVQWKVDNALQSGNSQESVTEQDSKDSTYSLSSTLTLSKADYEKHKVYACEVTHQGLSSPVTKSFNRGEC
light 2: DIVMTQTPLSLSVTPGQPASISCRSSQSLVHSNGNTFLHWYLQKPGQSPQLLIYTVSNRFSGVPDRFSGSGSGTDFTLKISRVEAEDVGVYFCSQTTHVPWTFGGGTKVEIKRTVAAPSVFIFPPSDRKLKSGTASVVCLLNNFYPREAKVQWKVDNALQSGNSQESVTEQDSKDSTYSLSSTLTLSKADYEKHKVYACEVTHQGLSSPVTKSFNRGEC
heavy 1: not shown
heavy 2: QVQLVQSGAEVKKPGASVKVSCKASGYSFTGYYIHWVRQAPGQSLEWMGRVIPNAGGTSYNQKFKGRVTLTVDKSISTAYMELSRLRSDDTAVYYCAREGIYWWGQGTTVTVSSASTKGPSVFPLAPSSKSTSGGTAALGCLVEDYFPEPVTVSWNSGALTSGVHTFPAVLQSSGLYSLSSVVTVPSSSLGTQTYICNVNHKPSNTKVDEKVEPKSCDKTHTCPPCPAPEAAGGPSVFLFPPKPKDTLMISRTPEVTCVVVDVSHEDPEVKFNWYVDGVEVHNAKTKPREEQYNSTYRVVSVLTVLHQDWLNGKEYKCKVSNKALGAPIEKTISKAKGQPREPQVCTLPPSRDELTKNQVSLSCAVKGFYPSDIAVEWESNGQPENNYKTTPPVLDSDGSFFLVSKLTVDKSRWQQGNVFSCSVMHEALHNHYTQKSLSLSPG
Consider B6, for which, in test [9], the “EC50, two cell line bridging assay (SEAP of HEK-Blue CD40L reporter cells with FAP-expressing WM-266-4 cells)” value came out at 0.0025 nM.

B7: P1AE2487, CD40 (P1AE0817) x FAP (4B9) (2+1) C-terminal crossfab fusion (bispecific antibody, human IgG1, kappa, L234A L235A)
light 1: EIVLTQSPGTLSLSPGERATLSCRASQSVTSSYLAWYQQKPGQAPRLLINVGSRRATGIPDRFSGSGSGTDFTLTISRLEPEDFAVYYCQQGIMLPPTFGQGTKVEIKSSASTKGPSVFPLAPSSKSTSGGTAALGCLVKDYFPEPVTVSWNSGALTSGVHTFPAVLQSSGLYSLSSVVTVPSSSLGTQTYICNVNHKPSNTKVDKKVEPKSC
light 2: DIVMTQTPLSLSVTPGQPASISCRSSQSLVHSNGNTFLHWYLQKPGQSPQLLIYTVSNRFSGVPDRFSGSGSGTDFTLKISRVEAEDVGVYFCSQTTHVPWTFGGGTKVEIKRTVAAPSVFIFPPSDEQLKSGTASVVCLLNNFYPREAKVQWKVDNALQSGNSQESVTEQDSKDSTYSLSSTLTLSKADYEKHKVYACEVTHQGLSSPVTKSFNRGEC
heavy 1: not shown
heavy 2: QVQLVQSGAEVKKPGASVKVSCKASGYSFTGYYIHWVRQAPGQSLEWMGRVIPNAGGTSYNQKFKGRVTLTVDKSISTAYMELSRLRSDDTAVYYCAREGIYWWGQGTTVTVSSASTKGPSVFPLAPSSKSTSGGTAALGCLVKDYFPEPVTVSWNSGALTSGVHTFPAVLQSSGLYSLSSVVTVPSSSLGTQTYICNVNHKPSNTKVDKKVEPKSCDKTHTCPPCPAPEAAGGPSVFLFPPKPKDTLMISRTPEVTCVVVDVSHEDPEVKFNWYVDGVEVHNAKTKPREEQYNSTYRVVSVLTVLHQDWLNGKEYKCKVSNKALGAPIEKTISKAKGQPREPQVCTLPPSRDELTKNQVSLSCAVKGFYPSDIAVEWESNGQPENNYKTTPPVLDSDGSFFLVSKLTVDKSRWQQGNVFSCSVMHEALHNHYTQKSLSLSPG
notes: bivalent for CD40, monovalent for FAP; also called CD40 x FAP (4B9) 2+1 crossfab
B7 had an EC50 in test [11] of 0.086 nM.
